Data set [1] can be described thus: folding stability dG unfold (combined trypsin and chymotrypsin); higher = more stable. The gist of the method: (§1)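 Only designs with AlphaFold2 dimer inter-PAE above 15 were retained; each was a mini-protein under 80 residues with no cysteine, in a PA-tagged cDNA display construct. After digestion with trypsin and chymotrypsin and sequencing, K50 was inferred by Bayesian fitting of counts, and unfolding free energy was derived per protease or combined against a sequence-predicted unfolded-state K50 and a shared folded-state K50.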

A short description of data set [2]: folding stability dG unfold from chymotrypsin proteolysis; higher = more stable. The gist of the method:
as §1

Data set [3] is described as follows: folding stability dG unfold from trypsin proteolysis; higher = more stable. The gist of the method: as §1

± gives the half width of the 95% confidence interval.

For the sequence “SSVEELSPEQRREQLRELLRQIREARREGDPEEERRLLEELRRLIEQLPDEEREEVRRLLEELGLPVEELSA [r9_182_TrROS_Hall]”, the “folding stability dG unfold” value in data set [1] worked out at 17 ± 0.795 kJ/mol; in data set [2] it was 15.6 ± 0.795 kJ/mol; in data set [3] it was 17.9 ± 0.879 kJ/mol.
On to “SSVEIKLYYDPVTNKYYVEITITAPPGDPAAVEARAAAVREEVKEALKAKGLVPDEIKVTVNVVSPAVPGSA [r9_117_JUSTAS]”, for which the “folding stability dG unfold” value in data set [1] amounted to 18.3 ± 0.879 kJ/mol; in data set [2], 17.9 ± 0.879 kJ/mol; in data set [3], 17.1 ± 0.628 kJ/mol.
For the sequence “SSVTLTLTAPLPDNTTVTVEVTLTPLPEKGLVVANPTVTVTTLTPDADGNLTTSSAPATFTVVVPPELAFSA [r9_1137_TrMRF]”, the “folding stability dG unfold” value worked out at 7.8 ± 0.46 kJ/mol in data set [1], 8.78 ± 0.46 kJ/mol in data set [2] and 6.19 ± 0.255 kJ/mol in data set [3].
Taken in the same sequence, the figures for “STAEELATYIAKTIQKRFPPGYRITDVRIERNPNGYVELPFTIEPPNGRPWTVEIWIDADNGEIEIEIQWSA [r9_219_TrROS]” were 12.2 ± 0.285 kJ/mol, 13.32 ± 0.0711 kJ/mol and 10.3 ± 0.251 kJ/mol.
On to “STMTLKELKERFPGFPPEMIEEIAERAENDPPGEEVEIYIRFPNGYPIYITVTKPDTVTIQFIPPGEPVYSA [r9_1024_TrROS]”, for which the “folding stability dG unfold” value in data set [1] turned out to be 5.2 ± 1.09 kJ/mol; in data set [2], 4.24 ± 0.92 kJ/mol; in data set [3] it was 5.14 ± 0.372 kJ/mol.
Taken in the same sequence, the figures for “SVEEFRELLPDAVIEAEPLSPDRLLIRLYVPEDPEKLNPLAERVRELAEEIERETGLPVLIEIIPVPPESSA [r9_1099_TrMRF]” were 5.91 ± 0.117 kJ/mol, 5.32 ± 0.0586 kJ/mol and 6.41 ± 0.138 kJ/mol.
On the same counts, the results for “SVKTSSSMAPPDRIVLKITDPETDKVTTITVPLDLPEDEPVAVHDPEAPSERTVAEIKALAEAGKSVSGLSA [r9_250_JUSTAS]” are -0.594 ± 0.753 kJ/mol, -2.3 ± 1.46 kJ/mol and -0.734 ± 0.669 kJ/mol.
Taken in the same sequence, the figures for “SVPIALPGVPPGFSLEEVAALITEKIKALGYTLKDIKVTPHPDNTVTITITVEKGEKTVKKVTTEINPPVSA [r9_953_JUSTAS]” were 10.7 ± 1.51 kJ/mol, 12.3 ± 0.406 kJ/mol and 6.54 ± 0.628 kJ/mol.
For the sequence “SVRIHGPDGQWFPVDDIEFDPNNNKFTFKFPGGKHKFPLPPGWQIEIDKDNAWIRVRPMPPPPPEDKEAKSA [r9_551_TrROS]”, the figures for the “folding stability dG unfold” value in data set [1], in data set [2] and in data set [3] were 11.2 ± 1.42 kJ/mol, 9.42 ± 0.255 kJ/mol and 12 ± 1 kJ/mol, respectively.
Taken in the same sequence, the figures for “SVSSKISKVVSETVEDDKRTVTIEVNVPSPVVEIYDSSGKVIKTVPLGKKTTITVTTDPKGTSVSVKVLNSA [r9_917_JUSTAS]” were 2.92 ± 0.46 kJ/mol, 4.05 ± 0.184 kJ/mol and 1.93 ± 0.502 kJ/mol.
On the same counts, the results for “SVTITKDGNKITVTLSVNGPFTLQVNKESSTSSFSVPADESATLTIDVPNTTYKVVVEKPGQPVSTYDLLSA [r9_411_JUSTAS]” are 8.23 ± 0.962 kJ/mol, 8.72 ± 0.711 kJ/mol and 7.54 ± 0.502 kJ/mol.
On the same counts, the results for “SVTRDPDGKITVDVDVRRTPDGFYYVEVKLQLKDGKPIFPVPAPVKNPEDGVKRMKEFAETFAKEFLKKWSA [r9_739_TrROS]” are 8.53 ± 0.628 kJ/mol, 10.1 ± 0.364 kJ/mol and 5.64 ± 0.243 kJ/mol.
As to “SVVRLPNGEWFEVDGRLVRVTVDEETGEIVDVEVYEVTVEEPPPPPPPLEVTVTVEPDAPPGATITITVTSA [r9_90_TrROS_Hall]”, the “folding stability dG unfold” value in data set [1] was 6.27 ± 1.13 kJ/mol; in data set [2], 6.2 ± 0.502 kJ/mol; in data set [3], 7.55 ± 0.544 kJ/mol.
On to “SWIPVKEIAKYIAREFGMPKENLDNIEEVDPITVHPNPDGWVQVEATIRFRNPRNGKGHEMRIEIHVPKKSA [r9_230_TrROS]”, for which the “folding stability dG unfold” value in data set [1] was 8.18 ± 0.377 kJ/mol; in data set [2] it was 9.28 ± 0.46 kJ/mol; in data set [3], 6.96 ± 0.1 kJ/mol.
With “SWKIEIPVLVKVDPGETMDEMKDQVVEIADMIAKYMQKQGGPIEVDVDVTPDPEEGYIFVTVEIEVPPGASA [r9_1161_TrROS]”, the “folding stability dG unfold” value in data set [1] was determined as 9.98 ± 1.21 kJ/mol; in data set [2] it was 12.2 ± 0.544 kJ/mol; in data set [3] it was 4.3 ± 0.544 kJ/mol.
Taken in the same sequence, the figures for “SWLKLPPGQKVITFQFQYPLPPGQSADDLVDNMEKELREFFGPGVKIEVNVQWDPNNGYFRVSVTIVIPKSA [r9_657_TrROS]” were 6.83 ± 0.837 kJ/mol, 5.06 ± 0.711 kJ/mol and 7.79 ± 0.238 kJ/mol.
On the same counts, the results for “SWMLRIRNPDDGKTREIKLPNMPPTVQKDGWISITNPQFLNQLLDALPPDYKIDEVEFMPGGMHTMKVKPSA [r9_997_TrROS]” are 0.0796 ± 0.502 kJ/mol, -0.28 ± 1.34 kJ/mol and 0.113 ± 0.711 kJ/mol.
On the same counts, the results for “SWVEIPPDKIKDLMNRFQNGDWEEIVDLLKDLGFKNVTIEPQRNNGQRYFTIWVEHPDGPVIIEMPPSDISA [r9_783_TrROS]” are 11.4 ± 0.406 kJ/mol, 12 ± 0.184 kJ/mol and 10 ± 0.343 kJ/mol.
For the sequence “SWYHIQFWLEGNSIEELMKWAKELAKQGNFEITKISNEHMHITIEIKLKPPPPPPPPPPKEEYDGDGKPKSA [r9_830_TrROS]”, the “folding stability dG unfold” value amounted to 9.3 ± 1.92 kJ/mol in data set [1], 9.93 ± 0.795 kJ/mol in data set [2] and 10.6 ± 2.34 kJ/mol in data set [3].
Taken in the same sequence, the figures for “SYDHMRKWIKQAAQERGLKVTNIDIEPTPKTNTFKMSIEIPNGREINFEFQHDKNGGWQFTIQQIKNALKSA [r9_85_TrROS]” were 11.2 ± 0.837 kJ/mol, 11.7 ± 0.163 kJ/mol and 8.66 ± 0.351 kJ/mol.
On the same counts, the results for “SYWIRITINGQTIMFPAEDADKLLGELQSNGWRIKITDIEPDPDDDWIMFKINIRPPKPPPPPPPDPDGKSA [r9_448_TrROS]” are 13.3 ± 1.42 kJ/mol, 14.5 ± 0.172 kJ/mol and 8.39 ± 0.46 kJ/mol.
Taken in the same sequence, the figures for “WMWVIKVRNPKNGKKRTIMIPDDPERAKNQIKNLKKQDPNMTVEIIGIKEPEVRKAAKEAGLDDIEVEPMPS [r1_114_TrROS]” were 3.04 ± 1.3 kJ/mol, 2.79 ± 1.42 kJ/mol and 3.17 ± 0.381 kJ/mol.
Turning to “YKAKITSVSFIPGEGYIVFNVEVIGPDGIPATFPIVIKIEIEPEEPDPAPPVIKDPNGKVYNPIIPKWFDAS [r1_270_TrMRF]”, the “folding stability dG unfold” value in data set [1] is 8.92 ± 0.377 kJ/mol; in data set [2], 9.96 ± 0.226 kJ/mol; in data set [3], 6.26 ± 0.18 kJ/mol.
With “YMVFIRIEVEDPKNGEEKAEIPIPIPIPPGDLKNMPPEDREKMIEEAKYFAEELAEEKGNVKIKPEIQWFES [r1_115_TrROS]”, the figures for the “folding stability dG unfold” value in data set [1], in data set [2] and in data set [3] were -0.123 ± 0.962 kJ/mol, -0.947 ± 2.76 kJ/mol and -1.03 ± 0.795 kJ/mol, respectively.

The record behind these values is the supplement of paper PMC12764529.
